Assay results: PMC10373542 (Journal of Virology, 2023)

B1: ION-300 monoclonal antibody (antibody, V domains shown)
VH: QVQLVQSGAEVKKPGESLKISCKGSGYSFTSYWIGWVRQMPGKGLEWMGIIYPGDSDTRYSPSFQGQVTISADKSISTAYLQWSSLKASDTAMYYCARHPSPYYYGSGSYSGGFDYWGQGTLVTVSS
VL: DIVMTQSPGTLSLSPGERATLSCRASQSVSSSYLAWYQQKPGQAPRLLIYGASTRATGIPARFSGSGSGTEFTLTISSLQSEDFAVYYCQQYDNWPLMHTFGQGTKLEIK
B2: 6D6 monoclonal antibody (antibody, V domains shown)
VH: EVQLQQSGAELVKPGASVKLSCTTSGFNIIDTYMHWVKQRPEEGLEWIGGIDPVNGNSEYDPKFQDKATITADTSSNTAYLHLSRLTSEDTAVYYCASAHYYGSSSSFPYWGQGTDLVTVS
VL: DIVMTQSQKFMSTSVGDRVSVTCKASQNVGTHVAWYQQKPGQSPKALIYSASYRYSGVPDRFTGSGVGTDFTLTITNVQSEDLAEYFCQQYNSYFTFGSGTKLEIK
B3: 7D6 monoclonal antibody (antibody, V domains shown)
VH: EVQLQQSGAELVRPGASVKLSCTASGFNIKDTYIHWVKQRPEQGLEWIGRIDPGDGDTEYDPSFQGKATITADTSSNTAYLELSSLTSEDTAVYYCTRFYDYVDYGMDYWGQGTSVTVSS
VL: DIQMTQSPASLSASVGETVTITCRASGNIHNYLAWYQQKQGKSPQLLVYNAKTLADGVPSRFSGSGSGTQYSLKINSLQPEDFGSYYCQHFWSTPPWTFGGGTKLEVK
B4: FD20 monoclonal antibody (antibody, V domains shown)
VH: QVQLQQSGAEVKKPGSSVKVSCKASGGTFSSYAFSWVRQAPGQGLEWMGRIIPILGIANYAQKFQGRVTITADISTSTAYMALSSLRSEDTAVYYCAKVEVNIGMDDYYYYYGMDVWGQGTTVTVSS
VL: not shown
B5: WRAIR-2057 monoclonal antibody (antibody, V domains shown)
VH: EVQLVQSGAEVKKPGESLKISCKGSGYSFISYWIAWVRQMPGKGLEWMGIIYPGDSDTTYSPSFQGQVTISADKSISTAYLQWSSLKASDTAIYYCARLLYYSDSSPLDSWGQGTLVTVSS
VL: DIQMTQSPSSLSASVGDRVTITCRASQSISTYLNWYQQKPGKAPNLLIYAASSLQSGVPSRFSGSGSGTDFTLTISSLQPEDFATYYCQQSHSTPRTFGPGTKVDIK
B6: WRAIR-2134 monoclonal antibody (antibody, V domains shown)
VH: EVQLVESGGGVVQPGRSLRLSCAASGFIFSSYGMYWVRQAPGKGLEWVAVIWYDGSNKYYADSVKGRFTISRDNSKNTLYLQMNSLRAEDTAVYYCARDLSSSSGWDDYYYYYGMDVWGQGTTVTVSS
VL: not shown
B7: COVOX-45 monoclonal antibody (antibody, V domains shown)
VH: QVQLVESGGGVVQPGRSLRLSCAASGFTFSTYAMHWVRQAPGKGLEWVAVLSYDGSNKYYADSVKGRFTISRDNSKNTLYLQMNSLRAEDTAVYYCAKGGSYAYYYYMDVWGKGTTVTVSS
VL: not shown
B8: X17 monoclonal antibody (antibody, V domains shown)
VH: QVQLQQSGAELARPGASVKLSCKASGYTFTFYWMQWLKQRPGQGLEWIGAIYPGDGDTRYTQRFKDKATLTADKSSSTAYIQLSSLASEDSAVYYCAGGEYDNYGFDYWGQGTTLTVSS
VL: DIQMTQTTSSLSASLGDRVTISCRASQDISNYLNWYQQKPDGTVKLLIYYTSRLHSGVPSRFSGSGSGTDYSLTISNLEQEDIATYFCQQGTTLPYTFGGGTKLEIK
B9: N-612-056 monoclonal antibody (antibody, V domains shown)
VH: not shown
VL: DIQMTQSPSSLSASVGDRVTITCQASQDISNYLNWYQQKPGKAPKLLIYDASNLETGVPSRFSGSGSGTDFTFTISSLQPEDIATYYCQQDAGTPLTFGQGTKVEIK
B10: S2H97 monoclonal antibody (antibody, V domains shown)
VH: QVRLVQSGAEVKKSGESLKISCKGSGYSFTSYWIGWVRQMPGKGLEWMGIIYPGDSDTRYSPSFQGQVTISADKSISTVYLQWSSLKASDTAMYYCARQWSHYTYDYYYWGQGTLVTISS
VL: QSVLTQPASVSGSPGQSITISCTGISSDVGGYNSVSWYQQHPGKAPKLMIYDVTNRPSGVSNRFSGSKSGNTASLTISGLQAEDEADYYCSSYTSSSTPPYVFGTGTKVSVL
B11: Walter Reed Army Institute of Research 2063 (WRAIR-2063) monoclonal antibody, human IgG1 (antibody, V domains shown)
VH: EVQLVESGGGVVQPGRSLRLSCAASGFTFSSYGMHWVRQAPGKGLEWVAVIWYDGSNKYYADSVKGRFTISRDNSKNTLYLQMNSLRAEDTAVYYCARGPLGSNYFNYDAFDIWGQGTMVTVSS
VL: DVVMTQSPLSLPVTLGQPASISCRSSQSLEYSDGNTYLNWFQQRPGQSPRRLIYKVSKRDSGVPDRFSGSGSGSDFTLKISRVEAEDVGVYYCMQGTHWPLTFGGGTKVEIK

Molecular target: T1, SARS-CoV-2 WA-1 spike receptor binding domain (RBD) (SARS-CoV-2 WA-1 (S identical to …, UniProt P0DTC2))
Assay: BLI

Point of comparison: B9, “fold higher rate of dissociation (koff) than with WRAIR-2063” value ~10 fold. Against it:
- B1 — the same, ~10 fold
- B2 — the same, ~10 fold
- B3 — the same, ~10 fold
- B4 — the same, ~10 fold
- B5 — the same, ~10 fold
- B6 — the same, ~10 fold
- B7 — the same, ~10 fold
- B8 — the same, ~10 fold

Molecular target: T1, SARS-CoV-2 WA-1 spike receptor binding …
Assay: BLI
Remark: another data set of the same source

Point of comparison: B6, Kd 4.26 nM. Against it:
- B1 — within 1.5-fold, 3.65 nM
- B2 — within 1.5-fold, 3.62 nM
- B10 — 4.7-fold lower, 0.9 nM
- B3 — within 1.5-fold, 3.41 nM
- B4 — within 1.5-fold, 3.07 nM
- B5 — within 1.5-fold, 6.3 nM
- B7 — within 1.5-fold, 4.43 nM
- B8 — within 1.5-fold, 4.72 nM
- B9 — within 1.5-fold, 6.31 nM

Molecular target: T1, SARS-CoV-2 WA-1 spike receptor binding …
Assay: cell-based or functional assay

Point of comparison: B2, “IC50 of neutralization of WA-1 pseudotyped virus on HEK293 cells expressing ACE2” value 1.37 µg/mL. Against it:
- B1 — within 1.5-fold, 0.99 µg/mL
- B10 — 4.4-fold lower, 0.31 µg/mL
- B3 — 4.2-fold lower, 0.33 µg/mL
- B11 — 3-fold lower, 0.45 µg/mL
- B4 — 2.3-fold lower, 0.6 µg/mL
- B5 — within 1.5-fold, 1.85 µg/mL
- B6 — 14-fold higher, 18.6 µg/mL
- B7 — 4.3-fold lower, 0.32 µg/mL
- B8 — 1.7-fold higher, 2.27 µg/mL
- B9 — 3.3-fold higher, 4.47 µg/mL
